Experimental data as given in patent publication US20260250420A1 (SICHUAN KELUN BIOTECH BIOPHARMACEUTICAL, published 2026).
Where a chain is given by its changes, count along the chain named.

How the values were obtained:
[1] = molecular target: T1, human PTK7 on cells (tumor cells endogenously expressing PTK7); CHO-hPTK7, CHO-S-hPTK7 and 293T-hPTK7 … (human, UniProt Q13308 31-1070); assay: flow cytometry on H358 cells endogenously expressing PTK7
T1 construct: whole, on cells; The cell line of each value is named under assay; also called H1299; H358
T1 sequence (looked up): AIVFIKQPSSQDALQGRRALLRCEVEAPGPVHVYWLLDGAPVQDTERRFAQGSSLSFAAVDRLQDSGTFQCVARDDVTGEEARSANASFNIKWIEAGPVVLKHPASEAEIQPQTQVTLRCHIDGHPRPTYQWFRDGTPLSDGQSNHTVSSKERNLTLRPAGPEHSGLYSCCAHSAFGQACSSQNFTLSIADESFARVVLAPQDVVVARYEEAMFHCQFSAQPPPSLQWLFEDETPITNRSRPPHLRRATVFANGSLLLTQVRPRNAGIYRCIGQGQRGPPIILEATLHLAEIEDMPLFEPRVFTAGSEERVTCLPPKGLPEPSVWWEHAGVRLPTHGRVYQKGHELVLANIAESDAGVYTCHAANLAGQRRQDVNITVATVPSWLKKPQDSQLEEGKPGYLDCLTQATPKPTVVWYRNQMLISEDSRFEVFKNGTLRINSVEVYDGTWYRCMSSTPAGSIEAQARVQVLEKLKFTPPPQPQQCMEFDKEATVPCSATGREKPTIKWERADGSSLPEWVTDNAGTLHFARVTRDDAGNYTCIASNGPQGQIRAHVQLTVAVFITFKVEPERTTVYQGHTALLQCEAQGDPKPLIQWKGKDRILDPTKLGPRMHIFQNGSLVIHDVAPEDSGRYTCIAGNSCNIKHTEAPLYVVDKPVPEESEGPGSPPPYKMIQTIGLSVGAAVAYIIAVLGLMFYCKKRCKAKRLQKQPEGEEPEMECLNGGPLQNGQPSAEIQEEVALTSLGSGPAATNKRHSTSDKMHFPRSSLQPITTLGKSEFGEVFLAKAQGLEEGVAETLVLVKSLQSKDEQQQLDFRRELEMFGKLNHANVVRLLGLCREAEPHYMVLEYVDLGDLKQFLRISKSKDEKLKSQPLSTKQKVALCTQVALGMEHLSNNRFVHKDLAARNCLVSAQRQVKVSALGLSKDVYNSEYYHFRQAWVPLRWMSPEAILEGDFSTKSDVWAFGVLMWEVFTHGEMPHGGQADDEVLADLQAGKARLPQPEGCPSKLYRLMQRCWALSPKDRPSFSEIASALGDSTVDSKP

[2] = molecular target: T1, human PTK7 on cells (tumor cells …); assay: flow cytometry on H1299 cells endogenously expressing PTK7
[3] = molecular target: T2, monkey PTK7 protein (extracellular sequence of monkey PTK7 with C-terminal 6×His tag) (monkey); assay: ELISA, coated monkey PTK7 protein 1 µg/ml
T2 chain: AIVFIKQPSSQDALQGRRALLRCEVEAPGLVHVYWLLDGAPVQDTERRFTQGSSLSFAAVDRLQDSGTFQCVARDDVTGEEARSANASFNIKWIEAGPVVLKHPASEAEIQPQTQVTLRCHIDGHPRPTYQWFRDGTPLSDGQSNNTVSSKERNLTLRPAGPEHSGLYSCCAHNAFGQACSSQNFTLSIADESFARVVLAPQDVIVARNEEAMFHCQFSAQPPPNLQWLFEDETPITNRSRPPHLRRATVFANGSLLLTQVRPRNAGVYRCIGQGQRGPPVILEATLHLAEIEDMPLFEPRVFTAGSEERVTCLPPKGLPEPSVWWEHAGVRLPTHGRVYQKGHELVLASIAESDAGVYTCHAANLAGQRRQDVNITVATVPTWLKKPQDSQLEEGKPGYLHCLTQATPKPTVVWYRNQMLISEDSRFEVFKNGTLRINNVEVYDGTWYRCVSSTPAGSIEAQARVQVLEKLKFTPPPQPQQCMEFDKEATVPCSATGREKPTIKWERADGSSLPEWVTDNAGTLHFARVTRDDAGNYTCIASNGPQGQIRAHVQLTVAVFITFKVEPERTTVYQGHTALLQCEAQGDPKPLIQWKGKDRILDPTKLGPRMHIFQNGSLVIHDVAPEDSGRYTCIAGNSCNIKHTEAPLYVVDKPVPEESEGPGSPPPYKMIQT
Experimental: (§1) Original data was imported into software for nonlinear curve fitting, and EC₅₀ of binding of each antibody to human PTK7 and monkey PTK7 was calculated, respectively. As shown in Table 1 and FIGS. 1A-1B, the screened antibodies could be bound to the human and monkey PTK7 proteins with affinity higher than that of the control antibody Hu24.

[4] = molecular target: T3, human PTK7 protein (extracellular sequence of human PTK7 with C-terminal 6×His tag) (human, UniProt Q13308 31-704); assay: ELISA, coated human PTK7 protein 1 µg/ml
T3 construct: extracellular domain; Expressed transiently in HEK293 cells; also called human PTK7-His; human PTK7-His protein
T3 sequence: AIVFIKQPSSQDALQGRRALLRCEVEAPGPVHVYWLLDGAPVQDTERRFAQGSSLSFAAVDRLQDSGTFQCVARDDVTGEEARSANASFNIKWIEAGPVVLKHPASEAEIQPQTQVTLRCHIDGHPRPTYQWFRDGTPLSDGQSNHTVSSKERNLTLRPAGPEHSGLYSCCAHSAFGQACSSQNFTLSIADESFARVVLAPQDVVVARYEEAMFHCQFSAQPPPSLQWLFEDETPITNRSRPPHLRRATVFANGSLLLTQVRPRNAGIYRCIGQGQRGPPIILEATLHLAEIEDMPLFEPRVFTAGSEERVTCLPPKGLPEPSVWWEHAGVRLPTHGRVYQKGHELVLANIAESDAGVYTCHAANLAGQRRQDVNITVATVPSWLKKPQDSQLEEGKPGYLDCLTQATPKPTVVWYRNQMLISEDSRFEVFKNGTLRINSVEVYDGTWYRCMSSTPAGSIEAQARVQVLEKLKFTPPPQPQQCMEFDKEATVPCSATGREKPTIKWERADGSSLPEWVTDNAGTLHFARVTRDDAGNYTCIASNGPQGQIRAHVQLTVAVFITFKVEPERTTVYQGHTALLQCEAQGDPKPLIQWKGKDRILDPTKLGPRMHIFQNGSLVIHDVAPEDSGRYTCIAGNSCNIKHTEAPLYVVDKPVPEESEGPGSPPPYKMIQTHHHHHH
Experimental: as §1

[5] = molecular target: T3, human PTK7 protein (extracellular …); assay: ELISA, coated human PTK7-His protein 1 µg/ml
Experimental: The original data was imported into software for nonlinear curve fitting, and the EC₅₀ of binding of each antibody to the human PTK7 was calculated, respectively.

[6] = molecular target: T1, human PTK7 on cells (tumor cells …); assay: flow cytometry on H1299 cells
Description: A flow cytometer (Beckman, Cytoflex) was used for detecting the affinity of the anti-human PTK7 chimeric and humanized antibodies with human non-small cell lung cancer cells H1299, human lung adenocarcinoma cells H1975, human breast cancer cells T47D, human ovarian cancer cells OVCAR-3 (all purchased from NANJING COBIOER BIOSCIENCES CO., LTD) and CHO-hPTK7 overexpression cells.
The adherent cells were digested by using a pancreatin (Gibco) solution; a proper amount of cells were counted and taken, washed twice by using 1×PBS, and re-suspended in a 1% BSA solution; and then the cells were transferred into a 96-well deep plate at a density of 50 μl/well; a candidate antibody was diluted by using 1% BSA, then 50 μl of diluted antibody was added into the deep plate containing the cells, and incubated for 40 min at 4° C.; the cells were washed twice by using PBS, then 50 μl of diluted secondary antibody was added into each well, uniformly mixed, and incubated for 30 min at 4° C.; and the cells were washed twice by using PBS, then re-suspended in 400 μl of PBS, and subjected to examination by flow cytometer.

B1: 4B12 (anti-human PTK7 murine antibody) (antibody, V domains shown)
VH: QVTLKESGPGILKPAQTLSLTCSFSGFSLSTSGMGVGWIRQPSGKGLEWLAHIWWDDDKHYNPSLKSRLTISKDASRNQVFLRISSVDTADTATYYCVRSNYGYDWFAYWGQGTLVTVSA
VL: DIKMTQSPSSMYVSLGERVTITCKASQDINTYLGWFQQKPGKSPKTLIYRANRLVDGVPSRFSGSGSGQDYSLTISSLEYEDMEIYYCLQYDEFPLTFGAGTKLEIK
notes: Murine antibody purified from hybridoma supernatant on Protein A
Which EC50 [1] does the source give for B1 here?
Its EC50 is 0.0441 µg/mL.

B2: 19C2 (anti-human PTK7 murine antibody) (antibody, V domains shown)
VH: QVTLKESGPGILKPSQTLSLTCSFSGFSLTTSGMGINWIRQPSGKGLEWLALIWWDDDKYYNPSLKNRLTVSKDPSRNQVFLTITSVDTTDSATYYCARSLITTAPSDYWGQGTSVTVSS
VL: DIVMTQSQKFMSTSVGDRVSITCKASQNVGTAITWYQQRPGQSPQLLIYSASNRYTGVPDRFTGSGSGTDFTLTISNLQSEDLADYFCLQYSDYPLTFGAGTNLELK
notes: as for B1
With B2 as the binder, how does the EC50 [1] read?
The EC50 was 0.0583 µg/mL.

B3: 4E12 (anti-human PTK7 murine antibody) (antibody, V domains shown)
VH: QVQLQQSGAELMRPGVSVKISCKGSGYTFTDYAMHWVKQNHAKSLEWIGVISTYYGNVSYNQKFKGKATMTVDKSSSTAYMELARLTSEDSAIYYCARGFAYWGQGTLVTVSA
VL: DIVITQDELSNLVTSGESVSISCRSSKSLQKKDGKTYLNWFLQRPGQSPQLLIYLMSTRASGVSDRFSGSGSGTDFTLEISRVKAEDVGVYYCQQLVEYPFTFGSGTKLEIK
notes: as for B1
Which EC50 [1] does the source give for B3 here?
The EC50 was 0.035 µg/mL.

B4: 101A6 (anti-human PTK7 murine antibody) (antibody, V domains shown)
VH: EVKLVESGGGLVQPGGSLSLSCAASGFTFTDYYLSWVRQPPGKALEWLALIRNKANGYTTEYSASVKGRFTISRDSSQSILYLQMDALRAEDSATYYCARDTLAAYWGQGTSVTVSS
VL: DIVMTQSHKFMSTSVGDRVSFTCKASQDVGSAVIWYQQKPGQSPKLLIYWASTRHTGVPDRFTGSGSGTDFTLTISNVQSEDLADYFCQQYSSYPLTFGAGTKLEIK
notes: as for B1
For B4, which EC50 [2] is on record?
Its EC50 is 0.245 µg/mL.

And the EC50 [3]?
The EC50 was 0.0187 µg/mL.

And the EC50 [4]?
Its EC50 is 0.0131 µg/mL.

B5: 8H3 (anti-human PTK7 murine antibody) (antibody, V domains shown)
VH: B4 VH with L34M, S76N, D86N, T102S, L103F, A104E, A105V, S112L, S117A
VL: B4 VL with M4L, S20N, F21I, S31T, I34A, S76R, Y91F, Y94F, L96F, A100G
notes: as for B1
With B5 as the binder, how does the EC50 [2] read?
Its EC50 is 0.21 µg/mL.

What about the EC50 [3] of the same binder?
Its EC50 is 0.0168 µg/mL.

What about the EC50 [4] of the same binder?
Its EC50 is 0.0113 µg/mL.

B6: 101A6-CH (anti-human PTK7 chimeric antibody of 101A6) (antibody, human IgG1, kappa, V domains shown)
VH: B4 VH
VL: DIVMTQSHKFMSTSVGDRVSFTCKASQDVGSAVIWYQQKPGQSPKLLIYWASTRHTGVPDRFTGSGSGTDFTLTISNVQSEDLADYFCQQYSSYPLTFGAGTKLEIKR
notes: The label '-CH' is not defined in words
What does the source list for B6?
EC50 [5]: 0.0316 µg/mL; EC50 [6]: 0.158 µg/mL

B7: 57F4 (anti-human PTK7 murine antibody) (antibody, V domains shown)
VH: EVQLVESGGGLVKPGGSRKLSCAASGFTFSDYGMHWVRQAPEKGLEWVAYISSGSSALYYADTVKGRFTISRDNVKNTLFLQMTSLRSEDTAMYYCARRSYYSYFAYWGQGTLVTVSA
VL: QIVLTQSPALMAASPGEKVTITCRVSSSISSSTLHWYQQKSETSPKPWIYGTSNLASGVPVRFSGSGSGTSYSLTISSMEAEDAATYYCQQWSSFPFTFGSGTKLEIK
notes: as for B1
For B7, which EC50 [2] is on record?
The EC50 was 0.0875 µg/mL.

And the EC50 [3]?
The EC50 was 0.0158 µg/mL.

And the EC50 [4]?
Its EC50 is 0.0218 µg/mL.

B8: 64A10-CH (anti-human PTK7 chimeric antibody of 64A10) (antibody, human IgG1, kappa, V domains shown)
VH: QVQLKESGPVLVAPSQSLSITCTVSGFSLTSYGVYWVRQPPGKGPEWLGVIWTSGNTNYNSALMSRLSISKDNSKSQVFLKMNSLQTDDTAMYYCVKHDGGNYVGVMNYWGQGTSVTVSS
VL: DIQMTQSPATLSVTPGDRVSLSCRASQSISDYLHWYQQKSQESPRLLIKYASQSISGIPSRFSGSGSGSDFTLSINSVEPEDVGVYYCQNGHSFPPTFGGGTKLEIKR
notes: as for B6
Which EC50 [5] does the source give for B8 here?
Its EC50 is 0.0258 µg/mL.

What about the EC50 [6] of the same binder?
Its EC50 is 0.355 µg/mL.

B9: 64A10 (anti-human PTK7 murine antibody) (antibody, V domains shown)
VH: B8 VH
VL: DIQMTQSPATLSVTPGDRVSLSCRASQSISDYLHWYQQKSQESPRLLIKYASQSISGIPSRFSGSGSGSDFTLSINSVEPEDVGVYYCQNGHSFPPTFGGGTKLEIK
notes: as for B1
With B9 as the binder, how does the EC50 [3] read?
Its EC50 is 0.00765 µg/mL.

And the EC50 [4]?
The EC50 was 0.0132 µg/mL.
